Experiments:
[1] = tested on: METTL3 (METTL3/14 complex);METTL14 (METTL3/14 complex); test: MST; conditions: MST and nanoDSF: 20 mM Tris pH 7.5, 50 uM ZnCl2, 1% glycerol, 1 mM DTT (MST 100 nM probe; nanoDSF 1 uM protein, 20-80 C). EMSA: 40 mM KCl, 20 mM Tris pH 7.6, 1.
[2] = tested on: METTL3 (METTL3/14 complex);METTL14 (METTL3/14 complex); test: thermal shift (nanoDSF); conditions: MST and nanoDSF: 20 mM Tris pH 7.5, 50 uM ZnCl2, 1% glycerol, 1 mM DTT (MST 100 nM probe; nanoDSF 1 uM protein, 20-80 C). EMSA: 40 mM KCl, 20 mM Tris pH 7.6, 1.
[3] = tested on: MacroH2A.1.1 (with H2B);H2B (with MacroH2A.1.1) (;); test: MST; conditions: poly(ADP-ribose) polymer, no base sequence; MST and nanoDSF: 20 mM Tris pH 7.5, 50 uM ZnCl2, 1% glycerol, 1 mM DTT (MST 100 nM probe; nanoDSF 1 uM protein, 20-80 C). EMSA: 40 mM KCl, 20 mM Tris pH 7.6, 1.
[4] = tested on: MacroH2A.1.1 (with H2B);H2B (with MacroH2A.1.1) (;); test: thermal shift (nanoDSF); conditions: 50 uM ZnCl2; dose-dependent; poly(ADP-ribose) polymer, no base sequence; MST and nanoDSF: 20 mM Tris pH 7.5, 50 uM ZnCl2, 1% glycerol, 1 mM DTT (MST 100 nM probe; nanoDSF 1 uM protein, 20-80 C). EMSA: 40 mM KCl, 20 mM Tris pH 7.6, 1.

For “DRACH RNA probe (4 tandem repeats of DRACH motif)”, the Kd [1] was 700 nM and the binding signal [2] was 1 C (delta Tm).
PAR (poly-(ADP-ribose)) showed a Kd [3] of 500 nM, a Kd ([1]; poly(ADP-ribose) polymer, no base sequence) of 1100 nM and a binding signal (C (delta Tm, maximum)) [4] of 3. It also gave a binding signal (C (delta Tm, maximum)) ([2]; 50 uM ZnCl2, concentration-dependent, poly(ADP-ribose) polymer, no base sequence) of over 2.
